Our source for the Km values is paper PMC6945034, “A Genetic Screen To Identify Genes Influencing the Secondary Redox Couple NADPH/NADP^+ in the Yeast Saccharomyces cerevisiae” (G3: Genes|Genomes|Genetics, 2019).

Substrate in series [1]: O=C(O)C(=O)CO
Nature of the series: purified protein. The series is classed as biochemical, Saccharomyces cerevisiae. The note with it: 0.25 mM NADPH, 50 mM potassium phosphate pH 7.4, 30 C, substrate 0-40 mM.

Substrate in series [2]: O=CC(=O)O
Nature of the series: purified protein. The series is classed as biochemical, Saccharomyces cerevisiae. The note with it: 0.25 mM NADPH, 50 mM potassium phosphate pH 7.4, 30 C, substrate 0-40 mM.

B1: Gor1p (Saccharomyces cerevisiae S288C) (protein)
chain: MSKKPIVLKLGKDAFGDQAWGELEKIADVITIPESTTREQFLREVKDPQNKLSQVQVITRTARSVKNTGRFDEELALALPSSVVAVCHTGAGYDQIDVEPFKKRHIQVANVPDLVSNATADTHVFLLLGALRNFGIGNRRLIEGNWPEAGPACGSPFGYDPEGKTVGILGLGRIGRCILERLKPFGFENFIYHNRHQLPSEEEHGCEYVGFEEFLKRSDIVSVNVPLNHNTHHLINAETIEKMKDGVVIVNTARGAVIDEQAMTDALRSGKIRSAGLDVFEYEPKISKELLSMSQVLGLPHMGTHSVETRKKMEELVVENAKNVILTGKVLTIVPELQNEDWPNESKPLV
notes: C-terminal 6xHis tag, tag cut not mentioned, expressed in E. coli BL21(DE3), Ni-NTA purified
In general, Km refers to the substrate concentration at which the rate is half of its maximum. With B1, the Km in the series “purified protein [1]” was determined as 22.7 mM; in the series “purified protein [2]” it was 8.4 mM.
